Experimental data as given in PMC11173989.

Molecular target: tKeima (tetrameric large Stokes shift red fluorescent protein Keima) (Montipora sp.)
Assay: SEC; gel filtration on Sephacryl S-100, 10 mM Tris-HCl (pH 8.0), 200 mM NaCl

stoichiometry N: 4
Substance: tKeima (tetrameric large Stokes shift red fluorescent protein Keima)
